Laboratory results: US20190233495A1 (Sanofi, published 2019)
Non-standard residues stand in square brackets, D forms with d. 1Nal = N[C@@H](Cc1cccc2ccccc12)C(=O)O; Nle = CCCC[C@H](N)C(=O)O; Aib = CC(C)(N)C(=O)O

T1: RXFP1 receptor (UniProt Q9HBX9 1-757, limits assumed)
T1 sequence (looked up): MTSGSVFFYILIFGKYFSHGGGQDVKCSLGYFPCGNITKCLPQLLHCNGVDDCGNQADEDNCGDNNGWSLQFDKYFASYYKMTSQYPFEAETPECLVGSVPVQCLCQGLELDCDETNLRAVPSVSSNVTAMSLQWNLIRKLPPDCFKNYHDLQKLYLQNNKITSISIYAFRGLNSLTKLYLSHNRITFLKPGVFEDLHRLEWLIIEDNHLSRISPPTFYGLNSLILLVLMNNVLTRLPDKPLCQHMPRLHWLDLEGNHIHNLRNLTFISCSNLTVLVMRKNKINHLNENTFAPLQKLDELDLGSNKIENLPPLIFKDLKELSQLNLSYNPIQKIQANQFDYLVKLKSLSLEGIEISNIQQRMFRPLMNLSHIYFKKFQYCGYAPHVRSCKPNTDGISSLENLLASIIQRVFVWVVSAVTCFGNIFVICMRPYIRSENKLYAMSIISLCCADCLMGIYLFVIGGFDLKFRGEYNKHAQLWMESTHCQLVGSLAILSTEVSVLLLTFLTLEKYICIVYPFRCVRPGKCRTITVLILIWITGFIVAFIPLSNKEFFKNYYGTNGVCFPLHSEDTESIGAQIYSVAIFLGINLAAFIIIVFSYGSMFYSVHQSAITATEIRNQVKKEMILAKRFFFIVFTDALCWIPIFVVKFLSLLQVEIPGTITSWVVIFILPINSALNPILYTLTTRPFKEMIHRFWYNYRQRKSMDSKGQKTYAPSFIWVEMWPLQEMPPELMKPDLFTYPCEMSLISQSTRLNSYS


target: T1, RXFP1 receptor; assay: cell-based or functional assay

Row | cAMP assay in OVCAR 5 cells EC50 [nM] | cAMP assay in OVCAR 5 cells Emax [%] | Binder
1 | 251 | 104 | Ac-LEGREKVR[Aib]QI[Aib][Aib]EGMSTWS[Aib]R-NH2 (SMILES CC[C@H](C)[C@H](NC(=O)[C@H](CCC(N)=O)NC(=O)C(C)(C)NC(=O)[C@H](CCCNC(=N)N)NC(=O)[C@@H](NC(=O)[C@H](CCCCN)NC(=O)[C@H](CCC(=O)O)NC(=O)[C@H](CCCNC(=N)N)NC(=O)CNC(=O)[C@H](CCC(=O)O)NC(=O)[C@H](CC(C)C)NC(C)=O)C(C)C)C(=O)NC(C)(C)C(=O)NC(C)(C)C(=O)N[C@@H](CCC(=O)O)C(=O)NCC(=O)N[C@@H](CCSC)C(=O)N[C@@H](CO)C(=O)N[C@H](C(=O)N[C@@H](Cc1c[nH]c2ccccc12)C(=O)N[C@@H](CO)C(=O)NC(C)(C)C(=O)N[C@@H](CCCNC(=N)N)C(N)=O)[C@@H](C)O) [SEQ ID NO: 42]
2 | 127 | 103 | Ac-LEGREKVRAQI[Aib][Aib]EG[Nle]SK[1Nal]SKR-NH2 (SMILES CCCC[C@H](NC(=O)CNC(=O)[C@H](CCC(=O)O)NC(=O)C(C)(C)NC(=O)C(C)(C)NC(=O)[C@@H](NC(=O)[C@H](CCC(N)=O)NC(=O)[C@H](C)NC(=O)[C@H](CCCNC(=N)N)NC(=O)[C@@H](NC(=O)[C@H](CCCCN)NC(=O)[C@H](CCC(=O)O)NC(=O)[C@H](CCCNC(=N)N)NC(=O)CNC(=O)[C@H](CCC(=O)O)NC(=O)[C@H](CC(C)C)NC(C)=O)C(C)C)[C@@H](C)CC)C(=O)N[C@@H](CO)C(=O)N[C@@H](CCCCN)C(=O)N[C@@H](Cc1cccc2ccccc12)C(=O)N[C@@H](CO)C(=O)N[C@@H](CCCCN)C(=O)N[C@@H](CCCNC(=N)N)C(N)=O) [SEQ ID NO: 36]
3 | 82 | 101 | Ac-LEGREKVRAQI[Aib][Aib]EG[Nle]STWS[Aib]RK-NH2 (SMILES CCCC[C@H](NC(=O)CNC(=O)[C@H](CCC(=O)O)NC(=O)C(C)(C)NC(=O)C(C)(C)NC(=O)[C@@H](NC(=O)[C@H](CCC(N)=O)NC(=O)[C@H](C)NC(=O)[C@H](CCCNC(=N)N)NC(=O)[C@@H](NC(=O)[C@H](CCCCN)NC(=O)[C@H](CCC(=O)O)NC(=O)[C@H](CCCNC(=N)N)NC(=O)CNC(=O)[C@H](CCC(=O)O)NC(=O)[C@H](CC(C)C)NC(C)=O)C(C)C)[C@@H](C)CC)C(=O)N[C@@H](CO)C(=O)N[C@H](C(=O)N[C@@H](Cc1c[nH]c2ccccc12)C(=O)N[C@@H](CO)C(=O)NC(C)(C)C(=O)N[C@@H](CCCNC(=N)N)C(=O)N[C@@H](CCCCN)C(N)=O)[C@@H](C)O) [SEQ ID NO: 44]
4 | 31.9 | 103 | Ac-LEGREKVRAQI[Aib][Aib]EGMSTWSKR-NH2 (SMILES CC[C@H](C)[C@H](NC(=O)[C@H](CCC(N)=O)NC(=O)[C@H](C)NC(=O)[C@H](CCCNC(=N)N)NC(=O)[C@@H](NC(=O)[C@H](CCCCN)NC(=O)[C@H](CCC(=O)O)NC(=O)[C@H](CCCNC(=N)N)NC(=O)CNC(=O)[C@H](CCC(=O)O)NC(=O)[C@H](CC(C)C)NC(C)=O)C(C)C)C(=O)NC(C)(C)C(=O)NC(C)(C)C(=O)N[C@@H](CCC(=O)O)C(=O)NCC(=O)N[C@@H](CCSC)C(=O)N[C@@H](CO)C(=O)N[C@H](C(=O)N[C@@H](Cc1c[nH]c2ccccc12)C(=O)N[C@@H](CO)C(=O)N[C@@H](CCCCN)C(=O)N[C@@H](CCCNC(=N)N)C(N)=O)[C@@H](C)O) [SEQ ID NO: 40]
5 | 126 | 98 | Ac-LEGREKVRAQI[Aib][Aib]EGMSTWS[Aib]RK-NH2 (SMILES CC[C@H](C)[C@H](NC(=O)[C@H](CCC(N)=O)NC(=O)[C@H](C)NC(=O)[C@H](CCCNC(=N)N)NC(=O)[C@@H](NC(=O)[C@H](CCCCN)NC(=O)[C@H](CCC(=O)O)NC(=O)[C@H](CCCNC(=N)N)NC(=O)CNC(=O)[C@H](CCC(=O)O)NC(=O)[C@H](CC(C)C)NC(C)=O)C(C)C)C(=O)NC(C)(C)C(=O)NC(C)(C)C(=O)N[C@@H](CCC(=O)O)C(=O)NCC(=O)N[C@@H](CCSC)C(=O)N[C@@H](CO)C(=O)N[C@H](C(=O)N[C@@H](Cc1c[nH]c2ccccc12)C(=O)N[C@@H](CO)C(=O)NC(C)(C)C(=O)N[C@@H](CCCNC(=N)N)C(=O)N[C@@H](CCCCN)C(N)=O)[C@@H](C)O) [SEQ ID NO: 45]
6 | 26.7 | 82 | Ac-LEGREKVRAQI[Aib][Aib]EGMSKWS[Aib]R-NH2 (SMILES CC[C@H](C)[C@H](NC(=O)[C@H](CCC(N)=O)NC(=O)[C@H](C)NC(=O)[C@H](CCCNC(=N)N)NC(=O)[C@@H](NC(=O)[C@H](CCCCN)NC(=O)[C@H](CCC(=O)O)NC(=O)[C@H](CCCNC(=N)N)NC(=O)CNC(=O)[C@H](CCC(=O)O)NC(=O)[C@H](CC(C)C)NC(C)=O)C(C)C)C(=O)NC(C)(C)C(=O)NC(C)(C)C(=O)N[C@@H](CCC(=O)O)C(=O)NCC(=O)N[C@@H](CCSC)C(=O)N[C@@H](CO)C(=O)N[C@@H](CCCCN)C(=O)N[C@@H](Cc1c[nH]c2ccccc12)C(=O)N[C@@H](CO)C(=O)NC(C)(C)C(=O)N[C@@H](CCCNC(=N)N)C(N)=O) [SEQ ID NO: 46]
7 | 10.7 | 102 | Ac-LEGREKVRAQI[Aib][Aib]EGMSKWSKR-NH2 (SMILES CC[C@H](C)[C@H](NC(=O)[C@H](CCC(N)=O)NC(=O)[C@H](C)NC(=O)[C@H](CCCNC(=N)N)NC(=O)[C@@H](NC(=O)[C@H](CCCCN)NC(=O)[C@H](CCC(=O)O)NC(=O)[C@H](CCCNC(=N)N)NC(=O)CNC(=O)[C@H](CCC(=O)O)NC(=O)[C@H](CC(C)C)NC(C)=O)C(C)C)C(=O)NC(C)(C)C(=O)NC(C)(C)C(=O)N[C@@H](CCC(=O)O)C(=O)NCC(=O)N[C@@H](CCSC)C(=O)N[C@@H](CO)C(=O)N[C@@H](CCCCN)C(=O)N[C@@H](Cc1c[nH]c2ccccc12)C(=O)N[C@@H](CO)C(=O)N[C@@H](CCCCN)C(=O)N[C@@H](CCCNC(=N)N)C(N)=O) [SEQ ID NO: 38]
8 | 45 | 106 | Ac-LEGREKVRAQI[Aib][Aib]EGMSTWS[Aib]R-NH2 (SMILES CC[C@H](C)[C@H](NC(=O)[C@H](CCC(N)=O)NC(=O)[C@H](C)NC(=O)[C@H](CCCNC(=N)N)NC(=O)[C@@H](NC(=O)[C@H](CCCCN)NC(=O)[C@H](CCC(=O)O)NC(=O)[C@H](CCCNC(=N)N)NC(=O)CNC(=O)[C@H](CCC(=O)O)NC(=O)[C@H](CC(C)C)NC(C)=O)C(C)C)C(=O)NC(C)(C)C(=O)NC(C)(C)C(=O)N[C@@H](CCC(=O)O)C(=O)NCC(=O)N[C@@H](CCSC)C(=O)N[C@@H](CO)C(=O)N[C@H](C(=O)N[C@@H](Cc1c[nH]c2ccccc12)C(=O)N[C@@H](CO)C(=O)NC(C)(C)C(=O)N[C@@H](CCCNC(=N)N)C(N)=O)[C@@H](C)O) [SEQ ID NO: 41]
9 | 52.4 | 104 | Ac-LEGREKVRAQI[Aib][Aib]EG[Nle]ST[1Nal]SKR-NH2 (SMILES CCCC[C@H](NC(=O)CNC(=O)[C@H](CCC(=O)O)NC(=O)C(C)(C)NC(=O)C(C)(C)NC(=O)[C@@H](NC(=O)[C@H](CCC(N)=O)NC(=O)[C@H](C)NC(=O)[C@H](CCCNC(=N)N)NC(=O)[C@@H](NC(=O)[C@H](CCCCN)NC(=O)[C@H](CCC(=O)O)NC(=O)[C@H](CCCNC(=N)N)NC(=O)CNC(=O)[C@H](CCC(=O)O)NC(=O)[C@H](CC(C)C)NC(C)=O)C(C)C)[C@@H](C)CC)C(=O)N[C@@H](CO)C(=O)N[C@H](C(=O)N[C@@H](Cc1cccc2ccccc12)C(=O)N[C@@H](CO)C(=O)N[C@@H](CCCCN)C(=O)N[C@@H](CCCNC(=N)N)C(N)=O)[C@@H](C)O) [SEQ ID NO: 37]
10 | 190 | 104 | Ac-LEGREKVRA[Aib]I[Aib][Aib]EGMSTWS[Aib]R-NH2 (SMILES CC[C@H](C)[C@H](NC(=O)C(C)(C)NC(=O)[C@H](C)NC(=O)[C@H](CCCNC(=N)N)NC(=O)[C@@H](NC(=O)[C@H](CCCCN)NC(=O)[C@H](CCC(=O)O)NC(=O)[C@H](CCCNC(=N)N)NC(=O)CNC(=O)[C@H](CCC(=O)O)NC(=O)[C@H](CC(C)C)NC(C)=O)C(C)C)C(=O)NC(C)(C)C(=O)NC(C)(C)C(=O)N[C@@H](CCC(=O)O)C(=O)NCC(=O)N[C@@H](CCSC)C(=O)N[C@@H](CO)C(=O)N[C@H](C(=O)N[C@@H](Cc1c[nH]c2ccccc12)C(=O)N[C@@H](CO)C(=O)NC(C)(C)C(=O)N[C@@H](CCCNC(=N)N)C(N)=O)[C@@H](C)O) [SEQ ID NO: 43]
